Laboratory results taken from a protein production outcome set (Wang et al. 2014).

Assay: label from the status in PepcDB records
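Note: failed if final PepcDB status was selected cloned or expressed and not failed if soluble or beyond.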

Row | Sequence | protein production
1 | MKYLASFRTTLKASRYMFRALALVLWLLIAFSSVFYIVNALHQRESEIRQEFNLSSDQAQRFIQRTSDVMKELKYIAENRLSAENGVLSPRGRETQADVPAFEPLFADSDCSAMSNTWRGSLESLAWFMRYWRDNFSAAYDLNRVFLIGSDNLCMANFGLRDMPVERDTALKALHERINKYRNAPQDDSGSNLYWISEGPRPCVGYFYALTPVYLANRLQALLGVEQTIRMENFFLPGTLPMGVTILDENGHTLISLTGPESKIKGDPRWMQERSWFGYTEGFRELVLKKNLPPSSLSIVYSVPVDKVLERIRMLILNAILLNVLAGAALFTLARMYERRIFIPAESDALRLEEHEQFNRKIVASAPVGICILRTADGVNILSNELAHTYLNMLTHEDRQRLTQIICGQQVNFVDVLTSNNTNLQISFVHSRYRNENVAICVLVDVSSRVKMEESLQEMAQAAEQASQSKSMFLATVSHELRTPLYGIIGNLDLLQTKELPKGVDRLVTAMNNSSSLLLKIISDILDFSKIESEQLKIEPREFSPREVMNHITANYLPLVVRKQLGLYCFIEPDVPVALNGDPMRLQQVISNLLSNAIKFTDTGCIVLHVRADGDYLSIRVRDTGVGIPAKEVVRLFDPFFQVGTGVQRNFQGTGLGLAICEKLISMMDGDISVDSEPGMGSQFTVRIPLYGAQYPQKKGVEGLSGKRCWLAVRNASLCQFLETSLQRSGIVVTTYEGQEPTPEDVLITDEVVSKKWQGRAVVTFCRRHIGIPLEKAPGEWVHSVAAPHELPALLARIYLIEMESDDPANALPSTDKAVSDNDDMMILVVDDHPINRRLLADQLGSLGYQCKTANDGVDALNVLSKNHIDIVLSDVNMPNMDGYRLTQRIRQLGLTLPVIGVTANALAEEKQRCLESGMDSCLSKPVTLDVIKQTLTVYAERVRKSRDS | failed
2 | MAKVVKLEPISRETTVNTNDNLLSALLDSELHVLKECGGRGMCATCHVYIKEGMESLSPINKREQRTLEVITTANATSRLACQARVLGPGVVVELPSG | failed
3 | TSLEEITKAIMADSQNKVFTEKNIEPLFAAPKTARINIVGQAPGIKAQESRLYWNDKSGDRLREWMGVDYDTFYHSGYFAVIPMDFYYPGKGKSGDLPPRKGFAQKWHQPILDLLPDIQLTILIGNYAQKYYLHQKSSVKLTDTVAHYKKYLPDYFPLVHPSPRNQIWMSRHPWFEAQVVPDLKKIIQQIIQSS | not failed
4 | MTIPTISELKKDRIIPHVFPNDKIDLNVDLFISFKAGKEVNHGNVLDIAGTGSVPRNIKFSEEPPDGYCFVLFMVDPDYPSRLRPDGKEYIHWVVSGIKTKELIKGTQKNCVTILPYVGPSIKKGTGLHRISFIISLIKEEDKDNITGLPHYKGEKYITRVKFNNYESVHNIAQINNMKIVGYNWCQIEG | failed
5 | MSLTESARIDGVSLYEIVIPMKIPFQISSGTCYTRRSLVVEIREGDLFGYGESAPFEEPFYLGETLETTKVILKNHLLPMILGKEPLSIEEFNHLIKNGIRGNHFARCGVENAYWDLIAKKNKISLKAMIEKKMKNLGVKQEYLASNNYIESGAALGIPEDGRIETLIHQVEESLQEGYRRIKIKIKPGWDVEPLQETRRAVGDHFPLWTDANSSFELDQWETFKAMDAAKCLFHEQPLHYEALLDLKELGERIETPICLDESLISSRVAEFVAKLGISNIWNIKIQRVGGLLEAIKIYKIATDNGIKLWGGTMPESGLGARFLISLASFRGFVFPADVAASEKWYGKGNDLVENTMTDGKIYVPDEPGASFDMTLSHLEALGKKIWESQRGEGHHHHHH | not failed
6 | MLGTSFNNFGISLSHKRYFSGKVDEIIRCTMGKRIVKISSTKINTSILSSVSEQIGENITDWKNDEKKVYVSRVVNQCIDKFCAEHSRKIGDNLRKQIFKQVEKDYRISLDINAAQSSINHLVSGSSYFKKKMDELCEGMNRSVKNDTTSNVANLISDQFFEKNVQYIDLKKLRGNMSDYITNLESPFLEHHHHHH | failed
7 | MAGSHAGTLRVLQAVDTELTADSVEWCPVEGYQHLLACGTYQLRAPRDQPALDGSEPQVRLGRLYLFSFSEHNTAKPLLEVQRRDSSAVLDMKWCHIPVSGHVLLGLANASGSIGLLRLMECENNSYTLQPISSLALDENCLSLSMDWSTGKSVRAREQPLKIISSDSKGQLHLLMVNEGTAELQLVASWPAHHFEAWIAAFNYWQTELVYSGGDDCLLRGWDTRMLGTPVFTSKRHCMGVCSIQSSPHQEHILATGSYDEHVLLWDTRNIRQPLADVPVQGGVWRLKWHPVHHHLLLAACMHNGFKILNCQKAIEEKQDITVLTSHEMPNSLVYGADWSWLFHSMKPTPTWFFDQNDMGVKAADHSSLKVTEEPPIHSQEQTMDRQVEGPANAHTRAELKASLLPLTEDMKNSKDCSSSSVKTRDLSHCSGGQSFDNSLLATCSFYDHVLHLWKWETNQARTLCSGTGCDLGSADH | failed
8 | PLQFHSVHGDNIRISRDGTLARRFESFCRAITFSARPVRINERICVKFAEISNNWNGGIRFGFTSNDPVTLEGTLPKYACPDLTNRPGFWAKALHEQYCEKDNILYYYVNGAGDVIYGINNEEKGVILTGIDTRSLLWTVIDIYGNCTGIEFLDSRIYMYQ | not failed
9 | MNIEQMLAILDPDVVQRLKIAVEIGKWPNGVALTAEQRQICMQAVMIWEHKHLPEEERTGYIDRGTKEEGEECDSHEPEIKPIRFI | failed
10 | MQLPTQQVAVLDAASTDDPQRIEALAADTDYPPETIAGAALALEAEGLVAVTETTTTTVSLTDEGHAYATDGLPEVRLYRAALDAGADDAPVEMGSVIGAAGLDGPQVDIALSNYARKGYGTIDSGALAADPDADPENDPEADALATLTDGDSVDDDAVVDQLASRDLVTVSERTVRSVTLTEAGVTELMAGVEATDEVGELTPELLASGEWADVEFADYNVAADAADHTPGKTHVLRQAAERVTDVLVGMGFQEMAGPHVDADFYINDCLFMPQDHPARNHWDRFALSNPARIDELPDALVERVERAHREGAGDDGDGYHSPWDEDFARALALRGHTTSLTARHLAGLADADVEAPARYFSVEKAYRNDTLDATHLLEFFQIEGWVLADDLSVRDLMGTFREFYSQFGIHDLQFKPTYNPYTEPSFELFGRHPETGELIEIGNSGIFRPEMLDPLDVDGDVMAWGLALERLLMLMTGFEDIRDVHGTLCDVGFLRNAEVVY | failed
11 | MMRFSNKFKKVPYLLQALLNVCLSFLALALSALLISETWYIVLFVYKSLFNKVDSYYEMLGELLIFFMYFEFIALIIKYFKSDFHFPLRYFIYIGITAVIRLIIIDHDQAISTFWWAMAILAMICGFFIANRRNSVVEH | failed
12 | MNLNAKKTTTAVQSASENPKLRVMPKQLFSRTPVLAGGNAAAKREEIREYFHSTLDRYEQLFETLRGDAAYFKKPISLRHPLIFYLGHTATFFTNKLLLAGLITDRINPKMESMFAVGVDEMSWDDLDTTHYDWPSVEEVRAYRRRMRETVDRLIRETPLTLPIEWDSPWWTIMMGIEHERIHLETSSVLIRQHALEHVAPHPAWEPCRKSGPAPDNQLVKVPEGTVQLGKKKDDPFYGWDNEYGTHIADVAAFEAGKYLVSNQEFLEFVQADGYETESYWEEEGRAWLKHAGAKHPTFWIRRGGEWELRLMTKEISMPWDWPVEVNYHEAKAFCNWKAAVSGQPYRLPTEDEWYRLYEVAGLSEVPAAAPAMANIHLDHGASSHPVNEFAQGDFYDVVGNVWQWTETPIYPFDGFDVHPHYDDFTTPTFDGRHNLIKGGSWISCGNESLKNSRYAFRRHFFQHAGFRYVVGTAPAIQHGSHYETDKLLSEYAEFHYGDTYFDVPNFPKALAELAIAAMGDKPAHKALDLGCASGRAAFELARHFDEVTGVDFSARFIGQGVQLASQGVLRYTLADEGDLVLYRERTLAGLGLDGVRHKVAFYQGDACNLKPIYTGYDLILAANLIDRLYDPAKLLTSIHTRINSGGILLIASPYTWLEEHTKREAWIGGFKRDGESFGTLDGLKEILGAHFRLIQGPTEVPFVIRETRRKFQHTLSEVTIWEKTA | failed
13 | MAGLFTPKDAAMNIAIVTINQENAAIASWLAAQDFSGCTLAHWQIEPQPVVAEQVLDAMVEQWQRTPADVVLFPPGTFGDELSTRLAWRLHGASICQVTSLDIPTVSMRKSHWGNALTATLQTEKRPLCLSLARQAGAAKNATLPSGMQQLNIVPGALPDWLVSTEDLKNVSRDPLAEARRVLVVGQGGEADNQEIVMLAEKLGAEVGYSRARVMNGGVDAEKVIGISGHLLAPEVCIVVGASGAAALMAGVRNSKFMVAINHDASAAVFSQADIGVVDDWKVVLEALVTNIHAEYQ | failed
14 | MFSGKRLKKRRITLGYSQSELADKLHINRSSYFNWENEKTKPNQSNLKQLAILLDVPETYFESEYKIVNTYLQLSLQNQEKVEKYAEELLQTQKVHEKIVPLFAVEVLSEIQLSAGPGEGLYDEFETETVYSEDEYTGFDIATWISGNSMEPVYKDGEVALIRSTGFDHDGAVYALNWNGSLYIKKLYREEDGFRMVSINPDVAERFIPFEDEIRIVGKIVGHFMPVIGGLEHHHHHH | not failed
15 | MNDTLLNAYSGIKTHQFGIDSLSNNIANVNTLGYRSNDPEFKTLFSSHLDALNAKSVVANDRNYGVTGSGNVLSNKDGEYMPSEGEFHMAYQGKGWFVIGPNKNGEITINKDGFSKKQDNFLTRAGNFARDADGYLVTPEGYYVYGIDLKKIKDGTLNSTARDEDIEKLHGNTLSPLQIPQDLTYQPVLSTKVNISVNLNPKDHLKGVQDFFLNDKGEIIKERFLNQDINALANNDNEPIDAITNRKLNISIQKEDGKKEDFVFTYGDAEKGENQFKTLGDLQKLLKEKTGLDLNLIKSEKDAKSPPLLLEIANPSQTPITFSLSGGIADKLGLKADGMELKKGISRDSVAIKIPYYSTEVDIYDKAGDKYLLQSEYYMTNSNDPTSSPTSKRKNQTWEVKSYIADPKNKTPINDPTWEIVGFDSATHKMKSAPMTLDFKGNKLTYSLDKSENHDSSDLSYQDSKLLEASQDGKPRGIFRDMRIEENGVISLAFSNGVVEPVARIGILAFTNDQGLRKIGGNLYEMQEGTINGENRPLSGNPILGWDEEGKLKFGKIRHKYLETSNVNAGNALTNLILMQRGYSMNARAFGAGDDMIKEAISLKK | failed
16 | MLEMIYFAVVAIVGFFFYRKMNGKPMFGFKKKGKSQGGVEKRTAEKNGKKNKKNTPATEEIDEDNVDFFSAFVEDIKEVENHMIRYHDDTFVLIAEAHPVNYYLLSNAEQEAIDIKIESWLTTLEFNTKVYIQSKFVDLTDPVRKMTETMKGAKDLTPETVLYGQEVIDNLEYWQRSQPRYEQKRYLIYPYKVDISTITADTEEELEEKIVDKAFNELYRRYNASRNLLSKAKISVEMLTKDKLIELLYVAFNRRKAVKARFQDLIENENFSLYSTGETNERKLELMKKVLAEEKAEKSNNGVA | failed
17 | MYLTVTPLSIVALTTAPPYFDTNGSISVPPPPNVIRSGLYESITLEYHKYTIKYCLTLITQTILFFLIVVCSMKVVIFGGTGLIGRAIYSSLPHDFYIVSRSAKGQEGQAHIIGLDEIDKIKECDVVINLSGYSIASKRWNRKVKEEIVRSRIDTTRLVVNFIRNLEKKPSAFLSGSAIGFYGHNTNKELTEEDPFGSGFLADLARSWEEEAMQADGICRTVLLRTANFLSPKGGFLSALINPKSKNVMYFGDGRQPVSWMHYADYVKAVEFVIENASIAGPVNMSSPQPVTFKEFAEAFSKSLGSHIRSIPEFLGKIALGSEMYRELMSGQKVIPKKLIQAGFKFDFPDINTAASSIASLMK | failed
18 | MKKSNIKTLEQFKDQNYGKKGTAKRDSLEMGYDTFKIGALIQEARIEKGMTQEELAIKCGTTKSYISRIENNIKEVRISTLQKIVELGFGGQLQLSIKFLEHHHHHH | not failed
19 | MKIAYLGPSGSFTHNVALHAFPAADLLPFENITEVIKAYESKQVCFAIVPVENSIEGSVHETFDYLFHQAKIEAVAEIILPIKQQLMSTSADKTIETIFSHPQAIAQGKQYIRSHYPDVKIEMTASTAYAARFVAEHPEENYAAIAPYAAADEYHLSIIAKDIQEIDENYTRFWVLGDETP | failed
20 | MVVLKKMIGLVVVLSVLLARDNPFEPEINSKNLQGGFNGIYDSYFKEIHVDLPTSARILKQITLTYQDIDGSIHSKVVGIDKGIDWHYPLKLSQHTLDPAAFEKRYQIQDFDFLMASNTMILRSPYKILRSFVLVNPYRIVLDTQKGPLDIYQNMDLNQKFFSHIKVGTHKDYYRITLILDGKYRYLLEEKNGAYELKLK | failed
